What was measured:
Formate oxidase (FOx) = biological target: T1, Formate oxidase (FOx) (Aspergillus oryzae, UniProt Q2UD26); test: UV-visible absorption spectra of purified enzyme; type: binding; conditions: 4 °C
T1 construct: gene AO090012000349; synthetic gene in pET28a(+) (NdeI-HindIII), expressed in E. coli BL21(DE3), purified on Ni-Sepharose; His tag cleavage not mentioned; contains FAD / 8-formyl FAD
T1 sequence (Q2UD26 2-578): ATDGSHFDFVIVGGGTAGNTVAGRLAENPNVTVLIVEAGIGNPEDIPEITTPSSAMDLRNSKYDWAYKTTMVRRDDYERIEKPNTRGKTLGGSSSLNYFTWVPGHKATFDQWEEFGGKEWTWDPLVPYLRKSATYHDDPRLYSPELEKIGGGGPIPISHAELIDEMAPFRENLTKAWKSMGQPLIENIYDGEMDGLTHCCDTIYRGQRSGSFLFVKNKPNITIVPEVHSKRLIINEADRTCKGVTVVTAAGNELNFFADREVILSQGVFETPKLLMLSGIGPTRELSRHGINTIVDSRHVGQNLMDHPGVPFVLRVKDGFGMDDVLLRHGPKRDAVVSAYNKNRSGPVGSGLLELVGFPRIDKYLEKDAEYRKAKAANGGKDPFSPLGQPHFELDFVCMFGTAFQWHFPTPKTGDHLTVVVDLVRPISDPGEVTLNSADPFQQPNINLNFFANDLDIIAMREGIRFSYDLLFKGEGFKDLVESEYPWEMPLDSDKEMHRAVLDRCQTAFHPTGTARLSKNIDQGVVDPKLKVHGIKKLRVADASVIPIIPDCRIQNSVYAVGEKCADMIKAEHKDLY

purified protein = substrate: O=CO; test: purified protein; conditions: 50 mM sodium acetate pH 5.0, 25 °C, air oxygen, enzyme 14 h after purification (8-formyl FAD formed)

For `Cc1cc2nc3c(=O)[nH]c(=O)nc-3n(C[C@H](O)[C@H](O)[C@H](O)COP(=O)(O)OP(=O)(O)OC[C@H]3O[C@@H](n4cnc5c(N)ncnc54)[C@H](O)[C@@H]3O)c2cc1C` [FAD], the “UV-visible absorption spectra of purified enzyme” value (Formate oxidase (FOx); copurified cofactor, autocatalytically converted to 8-formyl FAD) was “conversion of FAD to 8-formyl FAD within the active site of FOx”.

With `Cc1cc2nc3c(=O)[nH]c(=O)nc-3n(C[C@H](O)[C@H](O)[C@H](O)COP(=O)(O)OP(=O)(O)OC[C@H]3O[C@@H](n4cnc5c(N)ncnc54)[C@H](O)[C@@H]3O)c2cc1C=O` [8-formyl FAD] the “UV-visible absorption spectra of purified enzyme” value (Formate oxidase (FOx); formed in situ from bound FAD, 14 h) was “conversion of FAD to 8-formyl FAD within the active site of FOx”.

B1: Formate oxidase (FOx) (Aspergillus oryzae RIB40) (protein)
chain: T1 sequence (Q2UD26 2-578)
With B1 the Km (purified protein) was 96 ± 3.1 mM, the kcat (purified protein) was 102 s⁻¹ and the kcat/Km (purified protein) was 1100 M⁻¹ s⁻¹.
